Tests used:
[1] = target: T1, Spo0J R82A R82A (Bacillus subtilis) (UniProt P26497); assay: single-molecule PIFE, steady state, Hill fit (n=0.8±0.2); conditions: 150 mM NaCl, apparent Kd, Cy3-dUTP randomly incorporated, about 1 per kb, PIFE: 20 mM Tris pH 7.5, 100 ug/ml BSA, 100 mM NaCl (150 mM for Spo0J R82A Kd), flow 100 ul/min, BLItz: 20 mM Tris pH 7.5, 150 mM NaCl, 0.02% …
T1 sequence: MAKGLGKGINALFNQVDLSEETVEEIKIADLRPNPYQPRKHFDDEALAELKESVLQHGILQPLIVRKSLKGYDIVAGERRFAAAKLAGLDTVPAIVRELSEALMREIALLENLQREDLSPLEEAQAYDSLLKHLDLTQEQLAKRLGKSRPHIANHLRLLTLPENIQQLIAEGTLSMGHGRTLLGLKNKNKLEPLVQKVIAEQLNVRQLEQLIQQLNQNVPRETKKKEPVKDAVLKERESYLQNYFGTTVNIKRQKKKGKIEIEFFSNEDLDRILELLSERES

HBsu (Bacillus subtilis) = assay: single-molecule PIFE and DNA length, two-state model; conditions: Cy3-dUTP randomly incorporated, about 1 per kb, PIFE: 20 mM Tris pH 7.5, 100 ug/ml BSA, 100 mM NaCl (150 mM for Spo0J R82A Kd), flow 100 ul/min, BLItz: 20 mM Tris pH 7.5, 150 mM NaCl, 0.02% …
[2] = target: T1, Spo0J R82A R82A (Bacillus subtilis); assay: single-molecule PIFE kinetics, koff/kon; conditions: 150 mM NaCl, kon 2.1±0.2e6 M-1 s-1, koff 0.16±0.01 s-1, Cy3-dUTP randomly incorporated, about 1 per kb, PIFE: 20 mM Tris pH 7.5, 100 ug/ml BSA, 100 mM NaCl (150 mM for Spo0J R82A Kd), flow 100 ul/min, BLItz: 20 mM Tris pH 7.5, 150 mM NaCl, 0.02% …

Substance: 20-kb Cy3-labelled DNA
- Kd [1]: 60.5 nM
- Kd (HBsu (Bacillus subtilis); K1, high-affinity bending mode, first dimer): 13 nM
- Kd (HBsu (Bacillus subtilis); K2, low-affinity filament mode, second dimer): 390 nM
- Kd [2]: 76.2 nM

— publication PMC4786781
